From patent publication US20170307628A1 come the findings set out here.

This assay has as its target recombinant human IL-17A (human) (UniProt Q16552). Put plainly: cell-based or functional assay.

recombinant human IL-17A (human), sequence (Q16552 20-155 limits assumed): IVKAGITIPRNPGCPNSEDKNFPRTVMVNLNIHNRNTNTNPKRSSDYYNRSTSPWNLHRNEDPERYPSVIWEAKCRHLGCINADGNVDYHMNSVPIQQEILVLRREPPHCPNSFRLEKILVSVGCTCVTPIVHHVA

As for “human IL-17A receptor-Fc chimera (from UniProt Q96F46 33-320) (Fc fusion)”, the inhibition of IL-17A induced IL-6 production in NHDF cells, IC50 was found to be 1 nM.
